In article PMC6175992, “Telomeric Repeat-Binding Factor Homologs in Entamoeba histolytica: New Clues for Telomeric Research”:

T1: rEhTRF-like I (Entamoeba histolytica, UniProt C4M1I9 1-404)
T1 sequence: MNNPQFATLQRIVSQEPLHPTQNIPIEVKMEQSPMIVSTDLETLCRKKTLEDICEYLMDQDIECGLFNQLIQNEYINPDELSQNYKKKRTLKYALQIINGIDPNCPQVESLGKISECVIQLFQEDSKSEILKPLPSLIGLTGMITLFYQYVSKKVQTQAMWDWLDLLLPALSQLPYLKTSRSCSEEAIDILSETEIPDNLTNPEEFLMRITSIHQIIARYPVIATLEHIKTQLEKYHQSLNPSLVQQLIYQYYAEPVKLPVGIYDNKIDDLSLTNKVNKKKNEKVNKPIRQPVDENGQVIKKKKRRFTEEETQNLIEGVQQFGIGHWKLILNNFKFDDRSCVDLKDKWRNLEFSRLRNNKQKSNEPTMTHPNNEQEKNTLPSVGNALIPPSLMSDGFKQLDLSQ


Molecular target: T1, rEhTRF-like I
Experiment: EMSA; competed by unlabeled HsTEL and EhTEL; 12 mM HEPES pH 7.9, 60 mM KCl, 5 mM MgCl2, 1 mM EDTA, 4 mM Tris-HCl, 5 mM DTT, 10% glycerol, 4 mM spermidine, 4 mM MgCl (so in the source), 50 ng poly dI-dC, protease inhibitors; 20 min at 4 C; 106.86 uM rEhTRF-like I or 10 ug nuclear extract, 1 ng probe
Settings: protein: recombinant; tags: His tag (pCold I); label: 32P; 5' overhangs on both strands

Binder	binding result
HsTEL (dsDNA) DNA 1: GCTCTAGGGTTAGGGTTAGGGTTAGGGTTA DNA 2: CATCTACCCTAACCCTAACCCTAACCCTAA	binds
EhTEL (dsDNA) DNA 1: GCTCTATTAGTATTTTAGTATTTTAGTATTTTAGTATT DNA 2: CATCTAGAGCAATACTAAAATACTAAAATACTAAAATACTAA	binds
